# Test results taken from article PMC4454452 (The Biochemical journal, 2014).
# Biological target: CHD4 PHD2 finger (15N-labelled, GST tag cleaved) (uniformly 15N-labelled)
# Experiment: NMR titration
binder,measurement,value
"ARTKQTARKSTG [unmodified histone H3 peptide (amino acids 1-12 of histone H3), NMR experiments]",Kd,18 µM
